T1: human PRLR (Biacore antigen) (human, UniProt P16471 25-234, limits assumed)
T1 construct: The construct injected over captured antibody is not described (a soluble form is likely); also called huPRLR
T1 sequence: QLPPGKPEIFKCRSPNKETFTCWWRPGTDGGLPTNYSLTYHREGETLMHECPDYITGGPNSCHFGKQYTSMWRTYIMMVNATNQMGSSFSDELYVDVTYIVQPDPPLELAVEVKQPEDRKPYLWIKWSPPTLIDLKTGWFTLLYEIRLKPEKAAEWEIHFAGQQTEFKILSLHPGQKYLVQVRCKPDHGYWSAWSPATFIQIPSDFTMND

T2: human PRLR on cells (human, UniProt P16471 25-622)
T2 sequence: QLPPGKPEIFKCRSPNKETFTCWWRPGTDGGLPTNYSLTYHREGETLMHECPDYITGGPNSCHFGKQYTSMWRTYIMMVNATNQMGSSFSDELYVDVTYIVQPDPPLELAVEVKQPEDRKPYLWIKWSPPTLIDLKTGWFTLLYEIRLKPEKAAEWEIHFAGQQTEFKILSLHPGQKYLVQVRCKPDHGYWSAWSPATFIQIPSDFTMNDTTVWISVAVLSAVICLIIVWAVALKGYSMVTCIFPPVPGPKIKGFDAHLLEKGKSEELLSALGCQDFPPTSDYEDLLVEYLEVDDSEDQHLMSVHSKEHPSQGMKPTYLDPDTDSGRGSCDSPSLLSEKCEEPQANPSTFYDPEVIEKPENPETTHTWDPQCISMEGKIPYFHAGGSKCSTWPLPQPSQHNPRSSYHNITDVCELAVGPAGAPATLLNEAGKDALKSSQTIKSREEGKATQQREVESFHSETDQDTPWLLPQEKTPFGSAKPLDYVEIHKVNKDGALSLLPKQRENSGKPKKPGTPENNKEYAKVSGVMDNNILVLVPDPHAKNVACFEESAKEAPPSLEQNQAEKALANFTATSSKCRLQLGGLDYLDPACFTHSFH

T3: cyno PRLR (Biacore antigen) (cyno, UniProt A0A2K5WXK1 25-234)
T3 construct: also called cyPRLR
T3 sequence: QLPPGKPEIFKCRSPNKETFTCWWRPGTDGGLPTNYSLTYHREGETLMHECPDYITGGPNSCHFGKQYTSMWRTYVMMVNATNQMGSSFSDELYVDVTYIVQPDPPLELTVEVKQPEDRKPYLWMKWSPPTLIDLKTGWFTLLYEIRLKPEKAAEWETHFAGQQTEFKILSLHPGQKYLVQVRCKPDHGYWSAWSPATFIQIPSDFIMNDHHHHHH

T4: murine PRLR (Biacore antigen) (murine, UniProt Q08501 20-229, limits assumed)
T4 construct: also called muPRLR
T4 sequence (looked up): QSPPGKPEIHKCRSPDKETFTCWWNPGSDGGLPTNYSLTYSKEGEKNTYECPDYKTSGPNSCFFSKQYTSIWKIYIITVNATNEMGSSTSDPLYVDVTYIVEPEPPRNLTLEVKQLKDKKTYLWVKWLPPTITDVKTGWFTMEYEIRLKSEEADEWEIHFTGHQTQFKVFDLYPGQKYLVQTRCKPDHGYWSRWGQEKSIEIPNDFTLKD

T5: rat PRLR on Nb2-11 rat lymphoma cells (rat, UniProt P05710 20-610)
T5 sequence (looked up): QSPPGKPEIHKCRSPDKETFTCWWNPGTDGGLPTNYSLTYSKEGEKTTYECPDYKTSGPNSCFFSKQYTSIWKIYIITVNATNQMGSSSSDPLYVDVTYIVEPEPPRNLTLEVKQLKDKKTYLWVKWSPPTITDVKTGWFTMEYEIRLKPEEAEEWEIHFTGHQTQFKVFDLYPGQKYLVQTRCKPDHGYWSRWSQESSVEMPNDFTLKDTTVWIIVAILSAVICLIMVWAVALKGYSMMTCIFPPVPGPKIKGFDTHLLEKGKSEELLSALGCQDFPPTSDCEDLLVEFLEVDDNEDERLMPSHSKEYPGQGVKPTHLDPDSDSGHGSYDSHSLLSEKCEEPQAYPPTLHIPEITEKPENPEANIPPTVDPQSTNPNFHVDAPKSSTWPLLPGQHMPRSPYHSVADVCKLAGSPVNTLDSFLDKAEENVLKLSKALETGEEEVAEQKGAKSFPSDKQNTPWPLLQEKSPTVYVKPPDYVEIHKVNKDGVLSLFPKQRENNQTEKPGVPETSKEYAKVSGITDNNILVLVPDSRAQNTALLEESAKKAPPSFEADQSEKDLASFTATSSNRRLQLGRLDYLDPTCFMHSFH


Assays:
[1] = target: T1, human PRLR (Biacore antigen); assay: SPR Biacore
human PRLR on cells = target: T2, human PRLR on cells; assay: cell-based or functional assay
[2] = target: T3, cyno PRLR (Biacore antigen); assay: SPR Biacore
Outline: (§1)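 Association rate, dissociation rate and dissociation constant were measured by surface plasmon resonance on a Biacore instrument. PRLR antigen was tested at 600 nM, 66.67 nM and 7.41 nM, a 3-point, 9-fold dilution series. Constants came from a 1:1 binding model fit (local Rmax, mass-transport term included) in Biacore T200 Evaluation Software.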

[3] = target: T4, murine PRLR (Biacore antigen); assay: SPR Biacore
Outline: as §1

[4] = target: T1, human PRLR (Biacore antigen); assay: SPR Biacore; remark: listed apart in the source
Outline: as §1

[5] = target: T5, rat PRLR on Nb2-11 rat lymphoma cells; assay: cell-based or functional assay
[6] = target: cyno PRLR on Baf3-cyPRLR cells (cyno); assay: cell-based or functional assay

Row | fold weaker affinity than chAb7 [1] | Baf3-hPRLR proliferation IC50 (human PRLR on cells) | Kd [2] | koff [2] | kon [2] | Kd [3] | koff [3] | kon [3] | Kd [4] | koff [4] | kon [4] | Nb2-11 proliferation IC50 [5] | Baf3-cyPRLR proliferation IC50 [6] | Binder
1 | ~5 fold | 0.77 µg/mL | 850 pM | 0.00012 s⁻¹ | 140000 M⁻¹ s⁻¹ | 170000 pM | 0.007 s⁻¹ | 41000 M⁻¹ s⁻¹ | 1000 pM | 0.00014 s⁻¹ | 140000 M⁻¹ s⁻¹ |  |  | Ab54 (antibody, human IgG1, kappa, V domains shown, humanized from Ab7 (back mutations on Ab39); G1; also called Ab4 HC.1a.3 and Ab4 LC.1a) VH: EVQLVQSGAEVKKPGSSVKVSCKASGYTFTSYWIHWVRQAPGQGLEWIGEIDPSDSYTNYNQKFKGRATLTVDKSSSTAYMELSSLRSEDTAVYYCGRSFFTNWFAYWGQGTLVTVSS VL: DVVMTQTPLSLSVTPGQPASISCRSSQSLVHSNGNTYLHWYLQKPGQSPQLLIYKVSNRFSGVPDRFSGSGSGTDFTLKISRVEAEDVGVYFCSQSTHVPFTFGGGTKVEIKR
2 | ~4 fold | 0.92 µg/mL | 590 pM | 9.8e-05 s⁻¹ | 170000 M⁻¹ s⁻¹ | 140000 pM | 0.0063 s⁻¹ | 44000 M⁻¹ s⁻¹ | 670 pM | 0.00012 s⁻¹ | 170000 M⁻¹ s⁻¹ |  |  | Ab55 (antibody, human IgG1, kappa, V domains shown, humanized from Ab7 (back mutations on Ab39); G1; also called Ab4 HC.1a.2 and Ab4 LC.1a) VH: EVQLVQSGAEVKKPGSSVKVSCKASGYTFTSYWIHWVRQAPGQGLEWIGEIDPSDSYTNYNQKFKGRATLTVDRSSSTAYMELSSLRSEDTAVYYCGRSFFTNWFAYWGQGTLVTVSS VL: DVVMTQTPLSLSVTPGQPASISCRSSQSLVHSNGNTYLHWYLQKPGQSPQLLIYKVSNRFSGVPDRFSGSGSGTDFTLKISRVEAEDVGVYFCSQSTHVPFTFGGGTKVEIKR
3 |  | 10.7 µg/mL |  |  |  |  |  |  |  |  |  | 41.4 µg/mL | > 10 µg/mL | chAb12 (antibody, human IgG1, kappa, V domains shown) VH: DVQLQESGPGLVKPSQSLSLTCTVTGYSITSDYAWNWIRQFPGNKLEWMGYIGYSGRTSFNPSLKSRISITRDTSKNQFFLQLNSVTTEDTATYYCARGGFAMDYWGQGTSVTVSS VL: QIVLTQSPGIMSASPGEKVTMTCSASSSVTYMYWYQQKPRSSPKPWIYLTSNLASGVPARFSGSGSGTSYSLTISSMEAEDGATYYCQQWSSTPPLTFGGGTKLELNT
